Biological target: FLAG-tagged USF-1 (wild type, overexpressed in cells) (UniProt P22415)
Assay: cell-based or functional assay

UniProt P22415, sequence (P22415 whole entry): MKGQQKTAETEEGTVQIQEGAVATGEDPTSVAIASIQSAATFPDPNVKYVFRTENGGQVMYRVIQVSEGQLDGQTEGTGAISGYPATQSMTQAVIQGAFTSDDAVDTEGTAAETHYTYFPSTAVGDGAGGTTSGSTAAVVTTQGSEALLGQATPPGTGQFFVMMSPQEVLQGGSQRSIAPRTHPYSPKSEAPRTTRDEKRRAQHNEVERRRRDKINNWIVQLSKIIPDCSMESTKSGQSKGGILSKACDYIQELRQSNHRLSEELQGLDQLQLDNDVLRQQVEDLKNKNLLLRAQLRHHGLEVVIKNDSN

With “HDAC9, overexpressed in cells (from UniProt Q9UKV0 1-1011) (enzyme)” the FAS promoter activity (-444 FAS-Luc reporter) was 50 % decrease.

Substance “P/CAF, overexpressed in cells (from UniProt Q92831 1-832) (enzyme)” has an FAS promoter activity (-444 FAS-Luc reporter) of 2 fold.

From patent publication US20110275699A1, “Treatment For Obesity And Diabetes” (University of California, priority 2010, published 2011)
